Tests used:
[1] = target: T1, Fc-, mouse IgG2a-, or His-tagged cynomolgus CD137 (cynomolgus, UniProt A9YYE7 24-186); assay: BLI Octet HTX; tagged CD137 on biosensor, Fab 0-500 nM in solution; global 1:1 fit, apparent KD
T1 construct: also called cyno CD137; not shown: Fc, mouse IgG2a or His tag
T1 sequence: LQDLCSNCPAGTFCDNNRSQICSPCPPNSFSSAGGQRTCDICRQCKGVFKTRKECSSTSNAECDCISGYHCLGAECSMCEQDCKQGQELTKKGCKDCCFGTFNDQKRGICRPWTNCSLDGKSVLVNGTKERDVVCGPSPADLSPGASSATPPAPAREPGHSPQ
Description: (§1) The anti-CD137 antibodies were further tested for their binding to CD137 from multiple species. Specifically, mAb1, mAb8 and mAb10 were analyzed for binding to human, mouse, cynomolgus and canine CD137. Kinetic experiments were performed on Octet HTX (ForteBio) in kinetics buffer (1×PBS, pH 7.4, 0.1 mg/ml BSA, and 0.002% Tween 20). Fc-, mouse IgG2a-, or His-tagged CD137 (human, mouse, cyno or canine) were loaded for 5 minutes on pre-hydrated biosensors, AHC, AMC or NTA respectively. The sensors were then dipped into Fabs (0, 5.12, 12.8, 32, 80, 200 and 500 nM) for 5 minutes of association, following by 15 minutes of dissociation. Results were analyzed with ForteBio Data Analysis 9.0 and fit globally to a 1:1 binding model to determine the apparent KD. KD for human and mouse CD137 binding were confirmed by using antigens from different sources (ACRO Biosystems, Sino Biological and internal).

[2] = target: T2, Fc-, mouse IgG2a-, or His-tagged mouse CD137 (mouse, UniProt P20334 24-187); assay: as above
T2 construct: Antigens came from ACRO Biosystems, Sino Biological and internal sources; not shown: Fc, mouse IgG2a or His tag
T2 sequence (looked up): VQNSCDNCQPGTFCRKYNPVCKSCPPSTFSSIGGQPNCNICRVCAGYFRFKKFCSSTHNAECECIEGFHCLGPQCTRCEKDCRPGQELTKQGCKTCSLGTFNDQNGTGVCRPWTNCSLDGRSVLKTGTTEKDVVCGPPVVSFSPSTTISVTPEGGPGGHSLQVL
Description: as §1

[3] = target: T3, Fc-, mouse IgG2a-, or His-tagged human CD137 (human, UniProt Q07011 24-186); assay: as above
T3 construct: Antigens came from ACRO Biosystems, Sino Biological and internal sources; not shown: Fc, mouse IgG2a or His tag
Description: as §1

[4] = target: T4, human CD137 point mutant K114T, soluble protein (human, UniProt Q07011 24-186); assay: soluble point mutant tested for binding to mAb1; method not named
T4 construct: Printed as 'All 4 mutations tested at K114 (R, E, N, T)'; It was expressed as a soluble protein
T4 sequence (Q07011 24-186 K114T limits assumed): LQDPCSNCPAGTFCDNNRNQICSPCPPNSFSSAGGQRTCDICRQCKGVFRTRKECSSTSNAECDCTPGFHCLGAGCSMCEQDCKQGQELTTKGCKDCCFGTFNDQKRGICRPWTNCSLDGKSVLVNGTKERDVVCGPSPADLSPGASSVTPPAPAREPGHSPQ

[5] = target: T5, human CD137 point mutant K114R, soluble protein (human, UniProt Q07011 24-186); assay: as above
T5 construct: Printed as 'All 4 mutations tested at K114 (R, E, N, T)'; It was isolated from the extracellular-domain library and expressed as a soluble protein
T5 sequence (Q07011 24-186 K114R limits assumed): as the sequence (Q07011 24-186 K114T limits assumed) above, with T91R counted along it

[6] = target: T6, human CD137 point mutant K114N, soluble protein (human, UniProt Q07011 24-186); assay: as above
T6 construct: Printed as 'All 4 mutations tested at K114 (R, E, N, T)'; It was expressed as a soluble protein
T6 sequence (Q07011 24-186 K114N limits assumed): as the sequence (Q07011 24-186 K114T limits assumed) above, with T91N counted along it

[7] = target: T7, human CD137 point mutant K114E, soluble protein (human, UniProt Q07011 24-186); assay: as above
T7 construct: Printed as 'All 4 mutations tested at K114 (R, E, N, T)'; It was expressed as a soluble protein
T7 sequence (Q07011 24-186 K114E limits assumed): as the sequence (Q07011 24-186 K114T limits assumed) above, with T91E counted along it

Binder	Kd [1]	Kd [2]	Kd [3]	binding result [4]	binding result [5]	binding result [6]	binding result [7]
mAb1 Fab (Fab, V domains shown) VH: not shown VL: DIQMTQSPSSVSASVGDRVTITCRASQGISSWLAWYQQKPGKAPKLLIYAASSLQSGVPSRFSGSGSGTDFTLTISSLQPEDFATYYCQQGHLFPITFGGGTKVEIK	30 to 100 nM	300 to 500 nM	50 to 70 nM	–	–	–	–
mAb10 Fab (Fab, V domains shown) VH: EVQLLESGGGLVQPGGSLRLSCAASGFTFYGYAMSWVRQAPGKGLEWVAAISGSGDSTYYADSVKGRFTISRDNSKNTLYLQMNSLRAEDTAVYYCAKDSPFLLDDYYYYYYMDVWGKGTTVTVSS VL: DIQMTQSPSSVSASVGDRVTITCRASQGISSWLAWYQQKPGKAPKLLIYAASSLQSGVPSRFSGSGSGTDFTLTISSLQPEDFATYYCQQGHLFPITFGGGTKVEIK	1.8 nM	10 to 30 nM	0.9 nM	–	–	–	–
mAb8 Fab (Fab, V domains shown) VH: EVQLLESGGGLVQPGGSLRLSCAASGFTFRNYAMSWVRQAPGKGLEWVSAISGSGDTTYYADSVKGRFTISRDNSKNTLYLQMNSLRAEDTAVYYCAKDSPFLLDDYYYYYYMDVWGKGTTVTVSS VL: DIQMTQSPSSVSASVGDRVTITCRASQGISSWLAWYQQKPGKAPKLLIYAASSLQSGVPSRFSGSGSGTDFTLTISSLQPEDFATYYCQQGHLFPITFGGGTKVEIK	3 to 7 nM	50 to 90 nM	3 to 5 nM	–	–	–	–
anti-CD137 mAb1 (antibody, human IgG4 S228P, kappa, V domains shown, also called parental mAb1) VH: not shown VL: DIQMTQSPSSVSASVGDRVTITCRASQGISSWLAWYQQKPGKAPKLLIYAASSLQSGVPSRFSGSGSGTDFTLTISSLQPEDFATYYCQQGHLFPITFGGGTKVEIKR	–	–	–	no binding	no binding	no binding	no binding

From patent publication US20240181050A1 (COMPASS THERAPEUTICS, published 2024)
